According to the RNAGym collection of RNA variant scans (doi:10.1093/molbev/msab373):

B1: Azoarcus group I ribozyme (parent)
chain: GUGCCUUGCGCCGGGAAACCACGCAAGGGAUGGUGUCAAAUUCGGCGAAACCUAAGCGCCCGCCCGGGCGUAUGGCAACGCCGAGCCAAGCUUCGGCGCCUGCGCCGAUGAAGGUGUAGAGACUAGACGGCACCCACCUAAGGCAAACGCUAUGGUGAAGGCAUAGUCCAGGGAGUGGCGAAAGUCACACAAACCGG

Variants of: B1
Assay: reverse-splicing fitness (ratio to wild type); higher = more active; in vitro selection; Mg2+ level not given
Summary of the method: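 An in vitro group I ribozyme library with randomized positions was T7-transcribed and gel-purified. In triplicate, 10 pmol RNA in EPPS pH 7.5 was reacted with 50 pmoles of a 30-nt RNA substrate for 1 h at 37 °C across several added MgCl2 levels (1–48 mM), then stopped with EDTA. Products were reverse transcribed from a substrate-complementary primer, PCR-amplified and sequenced (HiSeq 4000). Fitness is a variant's read proportion after selection over that before, normalised to wild type.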

First: GUGCCUUGCGCCGGGAAACCACGCAAGGGAUGGUGUCAAAUUCGGCGAAACCUAAGCGCCCGCCCGGGCGUAUGGCAACGCCGAGCCAAGCUUCGGCGCCUGCGCCGAUGUAGGUGUAGGGACUAGACGGCACCCACCUAAGGCUAACGAUAUGGUGAAGGCAUAGUCGAGGGAGUGGCGAAAGUCACACAAACCGG [A111U A120G A145U C150A C169G]
Second: GUGCCUUGCGCCGGGAAACCACGCAAGGGAUGGUGUCAAAUUCGGCGAAACCUAAGCGCCCGCCCGGGCGUAUGGCAACGCCGAGCCAAGCUUCGGCGCCUGCGCCGAUGUAGGUGUAGGGACUAGACGGCACCCACCUAAGGCUAACGAUAUGGUGAAGGCAUAGUCUAGGGAGUGGCGAAAGUCACACAAACCGG [A111U A120G A145U C150A C169U]
The reverse-splicing fitness of the first is higher: 0.0206 for the first, 0.0181 for the second.

Going from GUGCCUUGCGCCGGGAAACCACGCAAGGGAUGGUGUCAAAUUCGGCGAAACCUAAGCGCCCGCCCGGGCGUAUGGCAACGCCGAGCCAAGCUUCGGCGCCUGCGCCGAUGUAGGUGUAGGGACUAGACGGCACCCACCUAAGGCUAACGGUAUGGUGAAGGCAUAGUCGAGGGAGUGGCGAAAGUCACACAAACCGG [A111U A120G A145U C150G C169G] to GUGCCUUGCGCCGGGAAACCACGCAAGGGAUGGUGUCAAAUUCGGCGAAACCUAAGCGCCCGCCCGGGCGUAUGGCAACGCCGAGCCAAGCUUCGGCGCCUGCGCCGAUGUAGGUGUAGGGACUAGACGGCACCCACCUAAGGCUAACGGUAUGGUGAAGGCAUAGUCUAGGGAGUGGCGAAAGUCACACAAACCGG [A111U A120G A145U C150G C169U], the reverse-splicing fitness rises from 0.021 to 0.0212.

Going from GUGCCUUGCGCCGGGAAACCACGCAAGGGAUGGUGUCAAAUUCGGCGAAACCUAAGCGCCCGCCCGGGCGUAUGGCAACGCCGAGCCAAGCUUCGGCGCCUGCGCCGAUGUAGGUGUAGGGACUAGACGGCACCCACCUAAGGCUAACGGUAUGGUGAAGGCAUAGUCAAGGGAGUGGCGAAAGUCACACAAACCGG [A111U A120G A145U C150G C169A] to GUGCCUUGCGCCGGGAAACCACGCAAGGGAUGGUGUCAAAUUCGGCGAAACCUAAGCGCCCGCCCGGGCGUAUGGCAACGCCGAGCCAAGCUUCGGCGCCUGCGCCGAUGUAGGUGUAGGGACUAGACGGCACCCACCUAAGGCUAACGGUAUGGUGAAGGCAUAGUCGAGGGAGGGGCGAAAGUCACACAAACCGG [A111U A120G A145U C150G C169G U176G], the reverse-splicing fitness falls from 0.0162 to 0.00439.

Compared with GUGCCUUGCGCCGGGAAACCACGCAAGGGAUGGUGUCAAAUUCGGCGAAACCUAAGCGCCCGCCCGGGCGUAUGGCAACGCCGAGCCAAGCUUCGGCGCCUGCGCCGAUGUAGGUGUAGGGACUAGACGGCACCCACCUAAGGCUAACGGUAUGGUGAAGGCAUAGUCGAGGGAGCGGCGAAAGUCACACAAACCGG [A111U A120G A145U C150G C169G U176C], GUGCCUUGCGCCGGGAAACCACGCAAGGGAUGGUGUCAAAUUCGGCGAAACCUAAGCGCCCGCCCGGGCGUAUGGCAACGCCGAGCCAAGCUUCGGCGCCUGCGCCGAUGUAGGUGUAGGGACUAGACGGCACCCACCUAAGGCUAACGGUAUGGUGAAGGCAUAGUCGAGGGAGAGGCGAAAGUCACACAAACCGG [A111U A120G A145U C150G C169G U176A] is higher in reverse-splicing fitness: 0.0049 for the first, 0.00701 for the second.

Going from GUGCCUUGCGCCGGGAAACCACGCAAGGGAUGGUGUCAAAUUCGGCGAAACCUAAGCGCCCGCCCGGGCGUAUGGCAACGCCGAGCCAAGCUUCGGCGCCUGCGCCGAUGUAGGUGUAGGGACUAGACGGCACCCACCUAAGGCUAACGGUAUGGUGAAGGCAUAGUCUAGGGAGAGGCGAAAGUCACACAAACCGG [A111U A120G A145U C150G C169U U176A] to GUGCCUUGCGCCGGGAAACCACGCAAGGGAUGGUGUCAAAUUCGGCGAAACCUAAGCGCCCGCCCGGGCGUAUGGCAACGCCGAGCCAAGCUUCGGCGCCUGCGCCGAUGUAGGUGUAGGGACUAGACGGCACCCACCUAAGGCUAACGGUAUGGUGAAGGCAUAGUCUAGGGAGCGGCGAAAGUCACACAAACCGG [A111U A120G A145U C150G C169U U176C], the reverse-splicing fitness rises from 0.0147 to 0.0151.

Compared with GUGCCUUGCGCCGGGAAACCACGCAAGGGAUGGUGUCAAAUUCGGCGAAACCUAAGCGCCCGCCCGGGCGUAUGGCAACGCCGAGCCAAGCUUCGGCGCCUGCGCCGAUGUAGGUGUAGGGACUAGACGGCACCCACCUAAGGCUAACGGUAUGGUGAAGGCAUAGUCUAGGGAGGGGCGAAAGUCACACAAACCGG [A111U A120G A145U C150G C169U U176G], GUGCCUUGCGCCGGGAAACCACGCAAGGGAUGGUGUCAAAUUCGGCGAAACCUAAGCGCCCGCCCGGGCGUAUGGCAACGCCGAGCCAAGCUUCGGCGCCUGCGCCGAUGUAGGUGUAGGGACUAGACGGCACCCACCUAAGGCUAACGAUAUGGUGAAGGCAUAGUCAAGGGAGGGGCGAAAGUCACACAAACCGG [A111U A120G A145U C150A C169A U176G] is higher in reverse-splicing fitness: 0.00433 for the first, 0.00499 for the second.

Compared with GUGCCUUGCGCCGGGAAACCACGCAAGGGAUGGUGUCAAAUUCGGCGAAACCUAAGCGCCCGCCCGGGCGUAUGGCAACGCCGAGCCAAGCUUCGGCGCCUGCGCCGAUGUAGGUGUAGGGACUAGACGGCACCCACCUAAGGCUAACGAUAUGGUGAAGGCAUAGUCCAGGGAGGGGCGAAAGUCACACAAACCGG [A111U A120G A145U C150A U176G], GUGCCUUGCGCCGGGAAACCACGCAAGGGAUGGUGUCAAAUUCGGCGAAACCUAAGCGCCCGCCCGGGCGUAUGGCAACGCCGAGCCAAGCUUCGGCGCCUGCGCCGAUGUAGGUGUAGGGACUAGACGGCACCCACCUAAGGCUAACGAUAUGGUGAAGGCAUAGUCCAGGGAGAGGCGAAAGUCACACAAACCGG [A111U A120G A145U C150A U176A] is higher in reverse-splicing fitness: 0.00474 for the first, 0.0129 for the second.

For GUGCCUUGCGCCGGGAAACCACGCAAGGGAUGGUGUCAAAUUCGGCGAAACCUAAGCGCCCGCCCGGGCGUAUGGCAACGCCGAGCCAAGCUUCGGCGCCUGCGCCGAUGUAGGUGUAGGGACUAGACGGCACCCACCUAAGGCUAACGAUAUGGUGAAGGCAUAGUCCAGGGAGCGGCGAAAGUCACACAAACCGG [A111U A120G A145U C150A U176C], the reverse-splicing fitness was 0.018.
